From publication PMC6774396 (Frontiers in Immunology, 2019)
Residue numbers refer to the chain shown, from its start.

System: THP-1 cells over TNF-α-activated HUVEC
Assay: L-selectin-GFP/RFP clustering in mid-TEM under flow, FLIM/FRET
Type: cell-based, human
Settings: 15 min perfusion at 1.5 dyn/cm^2, fixed in mid-TEM; Top = non-transmigrated uropods, Base = transmigrated pseudopods; at least 45 cells, 3 experiments; no TAPI-0
Method: (A) Line scanning confocal microscopic image of THP-1 cells, stably expressing GFP, captured in mid-TEM—following 15 min of perfusion over TNF-α-activated HUVEC monolayers. […] “Top” and “Base,” respectively, represent the apical and basolateral aspect of the endothelium (x63 objective lens, Leica SP5). Scale bar = 24 μm. (B,C) THP-1 cells expressing WT, SSAA, or SSDD L-selectin-GFP/RFP were perfused over TNF-α-activated HUVEC and fixed after 15 min of perfusion. […] Lifetime images taken of at least 45 cells and analyzed over 3 independent experiments was quantified and expressed as FRET efficiency. Images representative of three independent experiments, where at least 45 cells of each group was analyzed at two optical sections, Top and Base, as indicated in the cartoon of a yellow monocyte captured in mid-TEM crossing a red endothelium. Individual GFP channel and lifetime images are provided for each cell line. The lifetime of fluorescence is expressed in a pseudocolour scale from red (low lifetime with a very high probability of interaction) to blue (high lifetime with a very low probability of interaction). Statistics: unpaired student t-test ***p ≤ 0.001.
Cells expressing WT L-selectin-GFP/RFP were treated for 30 min with 10 μM TAPI-0 and subsequently perfused over TNF-activated HUVEC monolayers for 15 min prior to fixation and analysis for FRET by FLIM (see Materials and Methods for more detail). […] (B) Images representative of three independent experiments, where at least 45 cells of each group were analyzed at two optical sections–non-transmigrated uropods (Top) and transmigrated pseudopods (Base). GFP fluorescence channel and lifetime images are provided for each cell line. The lifetime of fluorescence is expressed in a pseudocolour scale from red (low lifetime with a very high probability of interaction) to blue (high lifetime with a very low probability of interaction). […]
FLIM measurement of FRET was performed with a multiphoton microscope system as described previously ([8], [23]). […] Fluorescence lifetime imaging capability was provided by time-correlated, single-photon counting electronics (SPC 700; Becker & Hickl). […] Data were analyzed as previously described ([65]). The FRET efficiency is related to the molecular separation of donor and acceptor and the fluorescence lifetime of the interacting fraction by: […]
where ηFRET is the FRET efficiency, R0 is the Förster radius, r is the molecular separation, τFRET is the lifetime of the interacting fraction and τd is the lifetime of the donor in the absence of an acceptor. The donor- only control is used as the reference against which all of other lifetimes are calculated in each experiment. τFRET and τd can also be taken to be the lifetime of the interacting fraction and non-interacting fraction, respectively. […]

B1: WT: wild-type human L-selectin, C-terminally tagged with GFP or RFP, expressed in THP-1 cells (protein)
chain: WTYHYSEKPMNWQRARRFCRDNYTDLVAIQNKAEIEYLEKTLPFSRSYYWIGIRKIGGIWTWVGTNKSLTEEAENWGDGEPNNKKNKEDCVEIYIKRNKDAGKWNDDACHKLKAALCYTASCQPWSCSGHGECVEIINNYTCNCDVGYYGPQCQFVIQCEPLEAPELGTMDCTHPLGNFSFSSQCAFSCSEGTNLTGIEETTCGPFGNWSSPEPTCQVIQCEPLSAPDLGIMNCSHPLASFSFTSACTFICSEGTELIGKKKTICESSGIWSNPSPICQKLDKSFSMIKEGDYNPLFIPVAVMVTAFSGLAFIIWLARRLKKGKKSKRSMNDPY
modifications: left off: eGFP (donor copy) or mCherry (acceptor copy, called RFP), C-terminal, kept
subcellular distribution of L-selectin clustering during TEM (FLIM/FRET): clustered exclusively within transmigrated pseudopods

B2: SSAA: L-selectin with Ser^364 and Ser^367 both mutated to alanines (protein)
chain: B1 chain with S326A, S329A
modifications: left off: eGFP (donor copy) or mCherry (acceptor copy, called RFP), C-terminal, kept
subcellular distribution of L-selectin clustering during TEM (FLIM/FRET): phenocopied the subcellular distribution of WT L-selectin
